This note sets out measurements from patent US20020146846A1 (published 2002).

The target in test [1] is T1, human epithelial glycoprotein-2, recombinant soluble protein (M1-F259) with a six-histidine C-terminal tag (human, UniProt P16422 24-259).
T1 construct: range 1-259; The stated range M1-F259 starts at the initiator methionine; also called recombinant soluble EGP-2-antigen; immobilized EGP-2
T1 sequence: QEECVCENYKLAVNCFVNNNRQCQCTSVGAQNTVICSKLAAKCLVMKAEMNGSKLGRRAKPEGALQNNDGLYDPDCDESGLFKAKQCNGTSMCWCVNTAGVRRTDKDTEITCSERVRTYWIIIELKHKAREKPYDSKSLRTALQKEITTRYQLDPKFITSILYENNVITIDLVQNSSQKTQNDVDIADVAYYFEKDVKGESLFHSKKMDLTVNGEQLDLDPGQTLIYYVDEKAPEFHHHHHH
Description: SPR (BIAcore), EGP-2 amine-coupled to CM-5 chip, scFv injected, 20 C. On the technique in general: Surface plasmon resonance follows binding to a sensor surface in real time, without labels.

Test [2] deals with T2, epithelial glycoprotein-2 (EGP-2) on EGP-2 overexpressing SW2 cells (human, UniProt P16422 24-314).
T2 construct: whole, on cells; Endogenous antigen of the human SW2 cell line; also called GA733-2; Ep-CAM
T2 sequence (looked up): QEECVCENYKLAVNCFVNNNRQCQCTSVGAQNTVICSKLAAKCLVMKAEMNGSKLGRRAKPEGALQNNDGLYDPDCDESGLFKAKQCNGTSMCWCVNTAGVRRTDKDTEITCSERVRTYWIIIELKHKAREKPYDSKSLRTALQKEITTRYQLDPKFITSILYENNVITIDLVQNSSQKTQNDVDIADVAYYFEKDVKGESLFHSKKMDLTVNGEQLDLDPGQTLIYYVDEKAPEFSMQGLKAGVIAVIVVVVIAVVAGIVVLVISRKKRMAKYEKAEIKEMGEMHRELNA
Put plainly: RIA of 99mTc-labelled scFv on SW2 cells, 4 C.

For test [3], the target named is T1, human epithelial glycoprotein-2, …. Description: SPR (BIAcore), immobilized EGP-2, low density coating and high flow rate.

B1: anti-EGP-2 scFv fragment obtained from the murine hybridoma MOC31 (scFv)
chain: DIVMTQSAFSNPVTLGTSASISCRSTKSLLHSNGITYLYWYLQKPGQSPQLLIYQMSNLASGVPDRFSSSGSGTDFTLRISRVEAEDVGVYYCAQNLEIPRTFGGGTKLEIKRTPSHNSHQVPSAGGPTANSGTSGSQVQLQQSGPELKKPGETVKISCKASGYTFTNYGMNWVKQAPGRGLKWMGWINTYTGESTYADDFKGRFAFSLETSASAAYLQINNLKNEDTATYFCARFAIKGDYWGQGTTLTVSS
For orientation: Kd means the free concentration of one partner at which half of the binding sites on the other are occupied at equilibrium, for simple one-to-one binding. Broadly, the koff is the first-order rate constant of dissociation. What is called kon is the second-order rate constant of association. In the case of B1, in test [1], the Kd turned out to be 3 nM, the koff was 0.0003 s⁻¹ and the kon was 99000 M⁻¹ s⁻¹. This molecule also yielded a Kd in test [2] of 10.8 nM. For the same molecule, the “half-life of binding on its target” value in test [3] is approximately 38 min.

B2: anti-EGP-2 scFv fragment 4D5MOC-B (scFv)
chain: DIQMTQSPSSLSASVGDRVTITCRSTKSLLHSNGITYLYWYQQKPGKAPKLLIYQMSNLASGVPSRFSSSGSGTDFTLTISSLQPEDFATYYCAQNLEIPRTFGQGTKVELKRTPSHNSHQVPSAGGPTANSGTSGSEVQLVQSGPGLVQPGGSVRISCAASGYTFTNYGMNWVKQAPGKGLEWMGWINTYTGESTYADSFKGRFTFSLDTSASAAYLQINSLRAEDTAVYYCARFAIKGDYWGQGTLLTVSS
Turning to B2, in test [1], the Kd came out at 3.9 nM, the koff turned out to be 0.000717 s⁻¹ and the kon was 184000 M⁻¹ s⁻¹. The same molecule had a Kd in test [2] of 3.7 nM.
